Experimental data from US20230363362A1, “GENETICALLY MODIFIED NON-HUMAN ANIMAL WITH HUMAN OR CHIMERIC GLP1R” (Biocytogen Pharmaceuticals (Beijing) Co., Ltd., priority 2020, published 2023).

Tests used:
human GLP1R [1] = target: T1, human GLP1R (Homo sapiens, UniProt P43220); assay: In vivo drug efficacy experiment (Example 2), GLP1R gene humanized homozygous mice; parameters: species or system mouse
T1 construct: 61-1452; 1-463; expressed in transfected cells; host or cells: GLP1R gene humanized homozygous mice (C57BL/6 ES cells); The human CDS is inserted into mouse exon 1 at the endogenous Glp1r locus, under mouse regulatory elements
Procedure: (§1) Ten 7-week-old male wild-type C57BL/6 mice (WT) and ten GLP1R gene humanized homozygous mice (H/H) were selected, and randomly divided (according to body weight) into control group (G1, G3) and administration Group (G2, G4). The control group was injected subcutaneously (s.c.) phosphate buffered saline (PBS). The administration group was injected subcutaneously with 10 mg/kg GLP1R agonist Dulaglutide, administered once every two days, with a total of 5 administrations. Before each administration, the body weight and non-fasting blood glucose concentration of the mice were measured. After the second and fourth doses, the mice were fasted overnight, and the glucose tolerance test (IPGTT) was used to evaluate the tolerance of the mice to glucose by intraperitoneal injection of 2 g/kg glucose D-Glucose. Blood was collected to determine the blood glucose value at 15 min, 30 min, 60 min, 120 min after injection, and the area under the curve (AUC) was calculated.

human GLP1R [2] = target: T1, human GLP1R; assay: High-fat diet induced obesity model (Example 3), GLP1R humanized homozygous mice; type: in vivo, mouse; settings: G4 GLP1R humanized
Procedure: (§2) Twenty 7-week-old male wild-type C57BL/6 mice (WT) and twenty GLP1R humanized homozygous mice (I/H) were selected. All mice were given a high-fat diet for 12 weeks to induce obesity and high blood sugar.
(§3) On the 13th week, the mice were grouped and administered either Dulaglutide or PBS according to Table 5. The day of grouping was recorded as DO, the next day was recorded as D1, and so on for calculation. When a mouse lost more than 20% of its body weight, it was euthanized to end the experiment. The administration group was given 1 mg/kg Dulaglutide by subcutaneous injection (sc), and the control group was given the same dose of control PBS, once every two days, with a total of 5 administrations. The test protocol is as follows: the random blood glucose (RBG) concentration and body weight were measured before each administration; the mice were fasted after the second administration, and the glucose tolerance test ([…]) was carried out the next day (protocol: after the fasting blood glucose was tested, 2 g/kg D-glucose was injected intraperitoneally, and blood glucose was measured at 15 min, 30 min, 60 min and 120 min after injection; the glucose solution was prepared at the ratio of 20% mass fraction, the administration dose was 10 ul/g body weight, and the solvent was physiological saline). After the fourth administration, the mice were fasted, and the fasting blood glucose was measured on the second day; blood was collected from the canthus within 48 hours after the last administration, and the supernatant was obtained by centrifugation. The levels of serum glucagon and insulin were determined by ELISA.

human GLP1R [3] = target: T1, human GLP1R; settings: background statement, no test described; cited from earlier work
mouse GLP1R [4] = target: T2, mouse GLP1R (Mus musculus, UniProt O35659); settings: background statement, no test described; cited from earlier work
T2 sequence (O35659 22-463): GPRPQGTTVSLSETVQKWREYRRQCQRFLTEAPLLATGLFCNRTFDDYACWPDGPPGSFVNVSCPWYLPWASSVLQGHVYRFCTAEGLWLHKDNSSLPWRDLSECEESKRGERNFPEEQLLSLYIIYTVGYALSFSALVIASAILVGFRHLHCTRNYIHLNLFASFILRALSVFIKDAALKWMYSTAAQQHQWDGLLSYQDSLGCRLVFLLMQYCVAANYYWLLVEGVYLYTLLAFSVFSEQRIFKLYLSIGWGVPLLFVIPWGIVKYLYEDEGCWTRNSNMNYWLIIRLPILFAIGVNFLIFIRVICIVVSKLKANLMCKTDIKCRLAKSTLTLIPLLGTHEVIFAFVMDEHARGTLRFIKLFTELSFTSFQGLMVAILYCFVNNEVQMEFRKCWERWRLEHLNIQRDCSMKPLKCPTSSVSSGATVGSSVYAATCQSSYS

mouse GLP1R [5] = target: T2, mouse GLP1R; assay: In vivo drug efficacy experiment (Example 2), wild-type C57BL/6 mice; parameters: Ten 7-week-old male wild-type C57BL/6 mice (WT); endogenous in cells; host or cells: wild-type C57BL/6 mice (whole animal, in vivo)
Procedure: as §1

mouse GLP1R [6] = target: T2, mouse GLP1R; assay: High-fat diet induced obesity model (Example 3), wild-type C57BL/6 mice; type: in vivo; parameters: Ten 7-week-old male wild-type C57BL/6 mice (WT); endogenous in cells; host or cells: wild-type C57BL/6 mice (whole animal, in vivo)
Procedure: as §2, §3

T1 sequence (P43220 24-463): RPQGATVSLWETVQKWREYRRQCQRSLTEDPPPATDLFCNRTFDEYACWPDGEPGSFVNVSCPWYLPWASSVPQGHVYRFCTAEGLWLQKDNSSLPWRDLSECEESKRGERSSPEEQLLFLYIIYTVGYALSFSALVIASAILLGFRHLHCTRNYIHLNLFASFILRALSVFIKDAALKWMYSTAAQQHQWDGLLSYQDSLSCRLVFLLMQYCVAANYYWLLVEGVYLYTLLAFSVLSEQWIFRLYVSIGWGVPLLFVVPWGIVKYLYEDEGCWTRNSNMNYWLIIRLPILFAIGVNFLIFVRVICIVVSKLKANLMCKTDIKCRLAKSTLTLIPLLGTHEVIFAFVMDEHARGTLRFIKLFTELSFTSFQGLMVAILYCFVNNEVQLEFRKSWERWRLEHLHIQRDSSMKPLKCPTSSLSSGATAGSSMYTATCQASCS

fasting blood glucose (human GLP1R [1]; G4 H/H vs PBS control G3, fasted overnight, s.c. Q2d x 5, FIG. 13): reduced
non-fasting blood glucose (human GLP1R [1]; G4 H/H vs PBS control G3, s.c. Q2d x 5, 10 mg/kg / 1 mg/kg (Table 5), FIG. 12): reduced
area under the curve (AUC) of IPGTT (human GLP1R [1]; H/H mice, 2 g/kg D-Glucose i.p., blood glucose 15-120 min, P≤0.05, FIG. 15): significant downward trend
blood glucose (non-fasting) (human GLP1R [2]; high-fat diet, 1 mg/kg s.c. Q2d*5, FIG. 25): significantly reduced
food intake in the 24 hours after the first administration (human GLP1R [2]; high-fat diet, 1 mg/kg s.c., vs control group, FIG. 24B): significantly lower
level of glucagon-like peptide-1 (human GLP1R [2]; high-fat diet, 24 hours after the drug administration, FIG. 29): significantly increased
insulin level (human GLP1R [2]; high-fat diet, Day 10, 15 min time point, vs control group, FIG. 27): tendency to increase
fasting blood glucose (mouse GLP1R [5]; G2 WT vs PBS control G1, fasted overnight, s.c. Q2d x 5, FIG. 13): reduced
non-fasting blood glucose (mouse GLP1R [5]; G2 WT vs PBS control G1, s.c. Q2d x 5, 10 mg/kg / 1 mg/kg (Table 5), FIG. 12): reduced
area under the curve (AUC) of IPGTT (mouse GLP1R [5]; WT mice, 2 g/kg D-Glucose i.p., blood glucose 15-120 min, P≤0.05, FIG. 15): significant downward trend
blood glucose (non-fasting) (mouse GLP1R [6]; G2 C57BL/6, high-fat diet, 1 mg/kg s.c. Q2d*5, FIG. 25): significantly reduced
food intake in the 24 hours after the first administration (mouse GLP1R [6]; G2 C57BL/6, high-fat diet, 1 mg/kg s.c., vs control group, FIG. 24B): significantly lower
plasma levels of glucagon (mouse GLP1R [6]; G2 C57BL/6, high-fat diet, 24 hours after the drug administration, FIG. 28): decreased
level of glucagon-like peptide-1 (mouse GLP1R [6]; G2 C57BL/6, high-fat diet, 24 hours after the drug administration, FIG. 29): significantly increased
insulin level (mouse GLP1R [6]; G2 C57BL/6, high-fat diet, Day 10, 15 min time point, vs control group, FIG. 27): tendency to increase
Substance: Dulaglutide
body weight during the experiment (human GLP1R [1]; G4, H/H mice, s.c. Q2d x 5, 10 mg/kg / 1 mg/kg (Table 5), FIG. 11): remained stable and did not change significantly
body weight (human GLP1R [2]; high-fat diet 12 weeks, 1 mg/kg s.c. Q2d*5, vs PBS control, FIG. 23): decreased more significantly
plasma levels of glucagon (human GLP1R [2]; high-fat diet, 24 hours after the drug administration, FIG. 28): decreased, and the decrease was more obvious
glucose tolerance (glucose tolerance test) (human GLP1R [2]; high-fat diet, after second administration, fasted, 2 g/kg D-glucose i.p., FIG. 26): significantly improve
affinity for human GLP1R (human GLP1R [3]): has affinity
affinity for mouse GLP1R (mouse GLP1R [4]): has affinity
body weight during the experiment (mouse GLP1R [5]; G2, WT C57BL/6 mice, s.c. Q2d x 5, 10 mg/kg / 1 mg/kg (Table 5), FIG. 11): remained stable and did not change significantly
body weight (mouse GLP1R [6]; G2 C57BL/6, high-fat diet 12 weeks, 1 mg/kg s.c. Q2d*5, vs PBS control, FIG. 23): decreased more significantly
glucose tolerance (glucose tolerance test) (mouse GLP1R [6]; G2 C57BL/6, high-fat diet, after second administration, fasted, 2 g/kg D-glucose i.p., FIG. 26): significantly improve
